The results in this text go back to PMC6477179, “FIP200 Claw Domain Binding to p62 Promotes Autophagosome Formation at Ubiquitin Condensates” (Molecular Cell, 2019).

B7: GFP-FIP200 CTR aa 1429-1594 (domain or fragment, human, UniProt Q8TDY2 1429-1594, looked up)
chain: ADEGRVDSAMETSMMSVQENIHMLSEEKQRIMLLERTLQLKEEENKRLNQRLMSQSMSSVSSRHSEKIAIRDFQVGDLVLIILDERHDNYVLFTVSPTLYFLHSESLPALDLKPGEGASGASRRPWVLGKVMEKEYCQAKKAQNRFKVPLGTKFYRVKAVSWNKKV
notes: FIP200 (RB1CC1), human, C-terminal region, residues 1429-1594; source: E. coli Rosetta (DE3) pLysS, purified (HisTrap, TEV, SEC); not shown: His6, N-terminal, cleaved; GFP, N-terminal, kept

Series [1] concerns the molecule itself. As to the kind of experiment: crystal structure; FIP200 Claw aa 1494-1594, SeMet crystal, 1.56 Å, space group C2221, one monomer in the asymmetric unit; 0.1 M HEPES pH 7.4, 2 M ammonium sulfate.
Series [2] concerns the target B7. As to the kind of experiment: microscopy-based protein-protein interaction assay (bait on beads); GST-tagged bait on glutathione Sepharose 4B beads, 2-5 μM fluorescently labeled prey not washed away (equilibrium), 25 mM HEPES pH 7.5, 150 mM NaCl, 1 mM DTT, 30 min to 1 h at room temperature or 4°C; confocal or spinning disk microscopy. Conditions: both partners purified.

Series [3] deals with the molecule itself. As to the kind of experiment: SEC with right-angle light scattering; 100 μl of 3 mg/ml FIP200 CTR on Superdex S75 10/300 with RALS-refractive index detector; 25 mM HEPES pH 7.5, 150 mM NaCl.
The target in series [4] is T1, GFP-FIP200 CTR aa 1458-1594 (human, UniProt Q8TDY2 1458-1594).
T1 construct: FIP200 (RB1CC1), human, C-terminal region, residues 1458-1594; also called GFP-FIP200 CTR WT; WT GFP-FIP200 CTR; source: E. coli Rosetta (DE3) pLysS, purified (HisTrap, TEV, SEC); not shown: His6, N-terminal, cleaved; GFP, N-terminal, kept
As to the kind of experiment: microscopy-based protein-protein interaction assay (bait on beads); GST-tagged bait on glutathione Sepharose 4B beads, 2-5 μM fluorescently labeled prey not washed away (equilibrium), 25 mM HEPES pH 7.5, 150 mM NaCl, 1 mM DTT, 30 min to 1 h at room temperature or 4°C; confocal or spinning disk microscopy. Conditions: both partners purified.

Series [5] addresses T2, FITC-labeled full-length FIP200 (FITC-FIP200-MBP) (human, UniProt Q8TDY2 1-1594, FITC-LPETGG peptide joined to the N-terminal glycine by Δ59SortaseA (FITC on the N-terminus)).
T2 construct: FIP200 (RB1CC1), human, full length; pCAG vector; also called Gly-FIP200-MBP; source: HEK293-GnT1 suspension cells, purified (Glutathione Sepharose, TEV, amylose resin, Superose 6); not shown: GST, N-terminal, cleaved; MBP, C-terminal, kept
The description is as above. Conditions: both partners purified.

Series [6] addresses T3, GFP-FIP200 CTR N1517F (human, UniProt Q8TDY2 1458-1594, N1517F).
T3 construct: FIP200 (RB1CC1), human, C-terminal region, residues 1458-1594; source: E. coli Rosetta (DE3) pLysS, purified (HisTrap, TEV, SEC); not shown: His6, N-terminal, cleaved; GFP, N-terminal, kept
Described as above. The following applies: both partners purified.

For series [7], the target named is T4, mCherry-p62 LIRmut (human, UniProt Q13501 1-440, residues 335-338 are mutated to Ala).
T4 construct: p62/SQSTM1, human, full length, LIR motif mutated; also called the LIR mutant; source: E. coli, purified as previously described (Wurzer et al., 2015)
The description is as above. The following applies: both partners purified.

Series [8] has as its target T5, mCherry-p62 wt (human, UniProt Q13501 1-440).
T5 construct: p62/SQSTM1, human, full length; also called full-length mCherry-p62 WT; source: E. coli, purified as previously described (Wurzer et al., 2015)
The series is described as above. The following applies: both partners purified.

The target in series [9] is T5, mCherry-p62 wt. As to the kind of experiment: microscopy-based protein-protein interaction assay (bait on beads); GSH beads coated with GST-2x ubiquitin, excess washed off, incubated with mCherry-p62 (2 μM) and GFP-FIP200 CTR (5 μM) for 1 h, imaged by microscopy. The following applies: both partners purified.

B1: FIP200 Claw (aa 1494-1594) (domain or fragment, human, UniProt Q8TDY2 1494-1594, looked up)
chain: EKIAIRDFQVGDLVLIILDERHDNYVLFTVSPTLYFLHSESLPALDLKPGEGASGASRRPWVLGKVMEKEYCQAKKAQNRFKVPLGTKFYRVKAVSWNKKV
modifications: selenomethionine-substituted (crystal)
notes: FIP200 (RB1CC1), human, Claw domain, residues 1494-1594; one monomer in the asymmetric unit, dimer by a crystallographic 2-fold; also called isolated Claw domain; FIP200 Claw domain; source: E. coli BL21(DE3), purified (Ni-NTA, TEV, Superdex 75)
As for B1, in [1], the binding result is given as “binds”.

B2: GST-p62 aa334-356 (domain or fragment, human, UniProt Q13501 334-356, looked up)
chain: GDDDWTHLSSKEVDPSTGELQSL
notes: p62/SQSTM1, human, residues 334-356; also called pGEX-p62 aa334-356; source: E. coli Rosetta (DE3) pLysS, purified (GSTrap, SEC)
With B2, in series [2], the binding result is “binds”.

B3: FIP200 CTR (aa 1458-1594) (domain or fragment, human, UniProt Q8TDY2 1458-1594, looked up)
chain: RIMLLERTLQLKEEENKRLNQRLMSQSMSSVSSRHSEKIAIRDFQVGDLVLIILDERHDNYVLFTVSPTLYFLHSESLPALDLKPGEGASGASRRPWVLGKVMEKEYCQAKKAQNRFKVPLGTKFYRVKAVSWNKKV
notes: FIP200 (RB1CC1), human, C-terminal region, residues 1458-1594; source: E. coli Rosetta2 (DE3), purified (Ni-NTA, TEV, Superdex S75); not shown: His6, N-terminal, cleaved
Consider B3, for which, in series [3], the stoichiometry N (as a rule, the number of molecules, sites or subunits per partner or assembly) turned out to be 2.

B4: GST-p62 FIR 3P (domain or fragment, human, UniProt Q13501 326-380, looked up)
chain: MESDNCSGGDDDWTHLSSKEVDPSTGELQSLQMPESEGPDDLDPDQEGPTGLKEA
notes: also called 3P (S365D, S366D, S370D); triple mutant; source: E. coli Rosetta (DE3) pLysS, purified (GSTrap, SEC)
As to B4, in series [4], the binding result is “binds”.

B5: GST-p62 FIR 4P (domain or fragment, human, UniProt Q13501 326-380, looked up)
chain: MESDNCSGGDDDWTHLSSKEVDPDTGELQSLQMPESEGPDDLDPDQEGPTGLKEA
notes: also called 4P (S349D, S365D, S366D, S370D); quadruple mutant; source: E. coli Rosetta (DE3) pLysS, purified (GSTrap, SEC)
In the case of B5, the binding result in [4], in series [5] and in series [6] was “binds” each time.

B6: GST-FIP200 CTR aa 1429-1594 (domain or fragment, human, UniProt Q8TDY2 1429-1594, looked up)
chain: ADEGRVDSAMETSMMSVQENIHMLSEEKQRIMLLERTLQLKEEENKRLNQRLMSQSMSSVSSRHSEKIAIRDFQVGDLVLIILDERHDNYVLFTVSPTLYFLHSESLPALDLKPGEGASGASRRPWVLGKVMEKEYCQAKKAQNRFKVPLGTKFYRVKAVSWNKKV
notes: FIP200 (RB1CC1), human, C-terminal region, residues 1429-1594; cloned in pGEX 4T1; also called FIP200 C-terminal region (CTR); source: E. coli Rosetta (DE3) pLysS, purified (GSTrap, SEC)
As for B6, the binding result in series [7] and in [8] was “binds” each time. Turning to B7, in series [9], the binding result is “binds”.
